The values below come from article doi:10.1101/2020.11.14.20231811.

This series addresses SARS-CoV-2 spike S1 subunit (SARS-CoV-2, UniProt P0DTC2 13-685). Briefly: phosphate buffer.

B1: CoV2-RBD-1C, MB/thiol-modified (structured_DNA)
DNA: CAGCACCGACCTTGTGCTTTGGGAGTGCTGGTCCAAGGGCGTTAATGGACA
modifications: 5' methylene blue; 3' thiol C3 (ThioMC3-D)
On to B1, for which the binding result is “binds”.
